Measurements: patent publication US12269859B2, “Synthetic immune receptors and methods of use thereof” (Angeles Therapeutics, Inc., priority 2016, dated 2025)

B1: 031517-T06 (protein)
chain: MALPVTALLLPLALLLHAARPLEGKPIPNPLLGLDSTGSGEDLKNVFPPEVAVFEPSKAEIAHTQKATLVCLATGFYPDHVELSWWVNGKEVHSGVCTDPQPLKEQPALNDSRYCLSSRLRVSATFWQNPRNHFRCQVQFYGLSENDEWTQDRAKPVTQIVSAEAWGRADCGITSASYHQGVLSATILYEILLGKATLYAVLVSALVLMAMVKRKDSRGRAKRSGSGATNFSLLKQAGDVEENPGPTSMALPVTALLLPLALLLHAARPDIVLTQSPATLSLSPGDRATLSCRASESVTILGSHLIYWYQQKPGQAPRLLIQLASNVQTGIPARFSGSGSRTDFTLTISSLEPEDFAVYYCLQSRTIPRTFGQGTKLEIKRGGGGSGGGGSGGGGSQVQLVQSGSELKKPGESVKISCKASGYTFTHYSMNWVRQAPGQGLEWMGRINTETGEPLYADDFKGRFVFSLDTSASTAYLQISSLKAEDTAVYYCSNDYLYSLDYWGQGTLVTVSSTREQKLISEEDGSGIQNPDPAVYQLRDSKSSDKSVCLFTDFDSQTNVSQSKDSDVYITDKCVLDMRSMDFKSNSAVAWSNKSDFACANAFNNSIIPEDTFFPSSDVPCDVKLVEKSFETDTNLNFQNLSVIGFRILLLKVAGFNLLMTLRLWSSRAKRSGSGVKQTLNFDLLKLAGDVESNPGPSRGHMTEYKPTVRLATRDDVPRAVRTLAAAFADYPATRHTVDPDRHIERVTELQELFLTRVGLDIGKVWVADDGAAVAVWTTPESVEAGAVFAEIGPRMAELSGSRLAAQQQMEGLLAPHRPKEPAWFLATVGVSPDHQGKGLGSAVVLPGVEAAERAGVPAFLETSAPRNLPFYERLGFTVTADVEVPEGPRTWCMTRKPGA
B2: 012517-G12 (protein)
chain: MALPVTALLLPLALLLHAARPLEGKPIPNPLLGLDSTGSGEDLKNVFPPEVAVFEPSKAEIAHTQKATLVCLATGFYPDHVELSWWVNGKEVHSGVCTDPQPLKEQPALNDSRYCLSSRLRVSATFWQNPRNHFRCQVQFYGLSENDEWTQDRAKPVTQIVSAEAWGRADCGITSASYHQGVLSATILYEILLGKATLYAVLVSALVLMAMVKRKDSRGRAKRSGSGATNFSLLKQAGDVEENPGPTSMALPVTALLLPLALLLHAARPDFVMTQSPDSLAVSLGERVTMSCKSSQSLLNSGNQKNYLTWYQQKPGQPPKLLIYWASTRESGVPDRFSGSGSGTDFTLTISSLQAEDVAVYYCQNDYSYPYTFGQGTKLEIKGGGGSGGGGSGGGGSQVQLVQSGAELKKPGASVKVSCKASGYTFTDYYMKWVRQAPGQGLEWIGDIIPSNGATFYNQKFKGRVTITVDKSTSTAYMELSSLRSEDTAVYYCARSHLLRASWFAYWGQGTLVTVSSTREQKLISEEDGSGIQNPDPAVYQLRDSKSSDKSVCLFTDFDSQTNVSQSKDSDVYITDKCVLDMRSMDFKSNSAVAWSNKSDFACANAFNNSIIPEDTFFPSSDVPCDVKLVEKSFETDTNLNFQNLSVIGFRILLLKVAGFNLLMTLRLWSSRAKRSGSGVKQTLNFDLLKLAGDVESNPGPSRGHMTEYKPTVRLATRDDVPRAVRTLAAAFADYPATRHTVDPDRHIERVTELQELFLTRVGLDIGKVWVADDGAAVAVWTTPESVEAGAVFAEIGPRMAELSGSRLAAQQQMEGLLAPHRPKEPAWFLATVGVSPDHQGKGLGSAVVLPGVEAAERAGVPAFLETSAPRNLPFYERLGFTVTADVEVPEGPRTWCMTRKPGA

System: target antigen-expressing cell line
Assay: Jurkat NFAT-GFP assay, coculture with target cell lines expressing the respective target antigen (summary Table 10A)
Type: cell-based, human
Design: key: The signs +/−, +, 2+ etc. after the name of the cell lines indicate the relative degree of positivity on the Jurkat-NFAT-GFP assay as measured by the % GFP positive cells; +: relative degree of positivity on the Jurkat-NFAT-GFP assay as measured by the % GFP positive cells; 2+: relative degree of positivity on the Jurkat-NFAT-GFP assay as measured by the % GFP positive cells
Conditions: relative % GFP positive cells
Procedure, shortened: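 Jurkat cells carrying an NFAT-site IL-2 promoter driving GFP were lentivirally transduced with SIRs, puromycin-selected, then cocultured with antigen-expressing target cells at E:T about 1:2 for about 4–18 hours. GFP induction was read by flow cytometry as % GFP-positive cells versus parental Jurkat-NFAT-GFP.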

| Molecule | NFAT-GFP ASSAY Positive Cell lines: L363 (SIR-expressing Jurkat-NFAT-GFP cells cocultured with L363) | NFAT-GFP ASSAY Positive Cell lines: U266 (SIR-expressing Jurkat-NFAT-GFP cells cocultured with U266) | NFAT-GFP ASSAY Positive Cell lines: L428 (SIR-expressing Jurkat-NFAT-GFP cells cocultured with L428) |
| --- | --- | --- | --- |
| B1 | L363 (+/−), U266 | (+/−) | – |
| B2 | – | – | L428 (+/−) |
